Experimental data: patent US20210171630A1 (MacroGenics, published 2021)

Assays:
[1] = molecular target: T1, Human CD16A 158F (labeled with Avitag) (human, UniProt P08637 17-208); experiment: SPR (BIACORE); diabody captured on goat F(ab')2 anti-human Fc, CD16A-Avitag passed over; 1:1 fit
T1 construct: also called human CD16A V/F molecules; not shown: Avitag

[2] = molecular target: T2, Human CD16A 158V (labeled with Avitag) (human, UniProt P08637 17-208); experiment: as above
T2 construct: also called human CD16A V/F molecules; CD16 158V allotype; not shown: Avitag

[3] = molecular target: T3, human CD16A on the surface of NK cells (human, UniProt P08637 17-254); experiment: flow cytometry, whole blood of donor D59780, NK cells: CD56 APC / αhFc PE double-positive cells (%)
T3 construct: whole, on cells; also called CD16A-expressing cells of the gated lymphocyte population; human CD16 on NK cells
Protocol: Following incubation, the cells were labled with: anti-CD56-allophycocyanin (CD56 APC, NK cell marker), anti-CD66b-fluorescein isothiocyanate (CD66b FITC, neutrophil cell marker) and anti-CD3-peridinin chlorophyll protein-Cy5.5 (CD3 PerCP Cy5.5, T-cell marker), and anti-humanFc-Phycoerythrin (αhFc PE) to detect diabody binding and the cell surface. The labeled cells were analyzed by flow cytometry gated on NK cells.

[4] = molecular target: T3, human CD16A on the surface of NK cells; experiment: flow cytometry, whole blood of donor D48353, gated lymphocyte population: αhFc APC (% positive)
[5] = molecular target: T4, Human CD16B, His tagged (R&D Systems) (human, UniProt O75015 17-200); experiment: SPR (ProteOn); CD16-His immobilized via anti-PentaHis, diabody passed over
T4 construct: Bought (R&D Systems); also called CD16-His tagged molecules; not shown: His tag
Protocol: (§1) A ProteOn analysis was conducted to assess the binding of the CD16 Binding Domains of the constructed diabodies to CD16-His tagged molecules (R&D Systems) that had been immobilized on a chip. The CD16 molecules were immobilized via an anti-PentaHis antibody, followed by incubation incubation with the diabodies.

[6] = molecular target: T5, Human CD16A 158V, His tagged (R&D Systems) (human, UniProt P08637 17-208); experiment: as above
T5 construct: Bought (R&D Systems); also called CD16-His tagged molecules; not shown: His tag
Protocol: as §1

[7] = molecular target: T6, Human CD16A V158F, His tagged (R&D Systems) (human, UniProt P08637 17-208); experiment: as above
T6 construct: Bought (R&D Systems); also called CD16-His tagged molecules; not shown: His tag
Protocol: as §1

[8] = molecular target: T7, human CD16B of neutrophils (human, UniProt O75015 17-200); experiment: flow cytometry, whole blood of donor D48353, gated granulocyte population (CD66b PerCP Cy5.5): αhFc APC (% positive)
T7 construct: whole, on cells; also called CD16B-expressing cells of the gated granulocyte population

[9] = molecular target: T7, human CD16B of neutrophils; experiment: flow cytometry, whole blood of donor D59780, neutrophils: CD66b FITC / αhFc PE double-positive cells (%)

T3 sequence (P08637 17-254): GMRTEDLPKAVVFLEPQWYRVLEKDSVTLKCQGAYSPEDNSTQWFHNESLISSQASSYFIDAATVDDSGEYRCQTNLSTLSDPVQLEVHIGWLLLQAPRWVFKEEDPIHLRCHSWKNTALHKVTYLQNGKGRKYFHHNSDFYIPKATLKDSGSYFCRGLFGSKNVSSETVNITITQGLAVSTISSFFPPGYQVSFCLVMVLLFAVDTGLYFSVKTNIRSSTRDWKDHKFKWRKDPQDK
T6 sequence (P08637 17-208 limits assumed, stated change not applied): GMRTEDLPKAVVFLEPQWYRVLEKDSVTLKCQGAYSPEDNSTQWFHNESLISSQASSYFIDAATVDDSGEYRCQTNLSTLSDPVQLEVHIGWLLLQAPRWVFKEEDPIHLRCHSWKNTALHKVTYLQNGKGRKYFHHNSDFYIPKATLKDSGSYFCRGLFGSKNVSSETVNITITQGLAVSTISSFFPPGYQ
T1 sequence (P08637 17-208 limits assumed): as the sequence (P08637 17-208 limits assumed, stated change not applied) above
T5 sequence (P08637 17-208 F176V limits assumed): as the sequence (P08637 17-208 limits assumed, stated change not applied) above, with F160V counted along it
T2 sequence (P08637 17-208 F176V limits assumed): as the sequence (P08637 17-208 limits assumed, stated change not applied) above, with F160V counted along it
T7 sequence (O75015 17-200): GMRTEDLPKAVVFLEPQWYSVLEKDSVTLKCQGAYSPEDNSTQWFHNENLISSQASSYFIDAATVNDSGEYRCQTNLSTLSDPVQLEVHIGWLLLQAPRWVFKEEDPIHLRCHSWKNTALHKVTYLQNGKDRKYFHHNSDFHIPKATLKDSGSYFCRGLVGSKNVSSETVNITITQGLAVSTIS
T4 sequence (O75015 17-200 limits assumed): as the sequence (O75015 17-200) above

Binder | Kd [1] | Kd [2] | EC50 (read off the curve) [3] | EC50 (read off the curve) [4] | Kd [5] | Kd [6] | Kd [7] | EC50 (read off the curve) [8] | EC50 (read off the curve) [9]
DART-F (bispecific antibody, Three-chain diabody; hCD16-M1 x A32; also called DART-F (hCD16-M1)) chain 1: QSALTQPPSASGSPGQSVTISCTGTSSDVGGYNYVSWYQHHPGKAPKLIISEVNNRPSGVPDRFSGSKSGNTASLTVSGLQAEDEAEYYCSSYTDIHNFVFGGGTKLTVLGGGSGGGGEVQLVESGGGLVKPGGSLRLSCAASGFTFSNYGMSWVRQAPGKGLEWVATISGGGSYTFYPDSVKGRFTISRDNAKNSLYLQMNSLRTEDTALYYCVRQSARAPEPYWGQGTLVTVSSASTKGEVAACEKEVAALEKEVAALEKEVAALEKGGGDKTHTCPPCPAPEAAGGPSVFLFPPKPKDTLMISRTPEVTCVVVDVSHEDPEVKFNWYVDGVEVHNAKTKPREEQYNSTYRVVSVLTVLHQDWLNGKEYKCKVSNKALPAPIEKTISKAKGQPREPQVYTLPPSREEMTKNQVSLWCLVKGFYPSDIAVEWESNGQPENNYKTTPPVLDSDGSFFLYSKLTVDKSRWQQGNVFSCSVMHEALHNHYTQKSLSLSPGK chain 2: DIQMTQSPSFLSASVGDRVTITCRASQNVGTHVAWYQQKPGKAPKSLLYSASYRYSGVPSRFSGSGSGTDFTLTISSLQSEDIATYYCQQYKSYPLTFGQGTKLEIKGGGSGGGGQVQLQESGPGLVKPSQTLSLSCTVSGGSSSSGAHYWSWIRQYPGKGLEWIGYIHYSGNTYYNPSLKSRITISQHTSENQFSLKLNSVTVADTAVYYCARGTRLRTLRNAFDIWGQGTLVTVSSASTKGKVAACKEKVAALKEKVAALKEKVAALKE chain 3: not shown | 0.2 nM | 0.3 nM | ~0.0002 µg/mL | ~0.003 µg/mL | 0.4 nM | 0.1 nM | 0.1 nM | – | –
DART-G (bispecific antibody, Three-chain diabody; hCD16-M2 (VH1) x A32; also called DART-G (hCD16-M2)) chain 1: QSALTQPPSASGSPGQSVTISCTGTSSDVGGYNYVSWYQHHPGKAPKLIISEVNNRPSGVPDRFSGSKSGNTASLTVSGLQAEDEAEYYCSSYTDIHNFVFGGGTKLTVLGGGSGGGGQVQLVQSGAEVKKPGASVKVSCKASGYTFTSSAMHWVRQAPGQGLEWMGYINHYNDGIKYNERFKGRVTITADKSTSTAYMELSSLRSEDTAVYYCATGYRYASWFASWGQGTLVTVSSASTKGEVAACEKEVAALEKEVAALEKEVAALEKGGGDKTHTCPPCPAPEAAGGPSVFLFPPKPKDTLMISRTPEVTCVVVDVSHEDPEVKFNWYVDGVEVHNAKTKPREEQYNSTYRVVSVLTVLHQDWLNGKEYKCKVSNKALPAPIEKTISKAKGQPREPQVYTLPPSREEMTKNQVSLWCLVKGFYPSDIAVEWESNGQPENNYKTTPPVLDSDGSFFLYSKLTVDKSRWQQGNVFSCSVMHEALHNHYTQKSLSLSPGK chain 2: EIVLTQSPATLSVSPGERATLSCRASQNIGTSIHWYQQKPDQSPKLLIKSVSESISGVPSRFSGSGSGTDFTLTINSLEAEDFATYYCQQSNSWPLTFGQGTKLEIKGGGSGGGGQVQLQESGPGLVKPSQTLSLSCTVSGGSSSSGAHYWSWIRQYPGKGLEWIGYIHYSGNTYYNPSLKSRITISQHTSENQFSLKLNSVTVADTAVYYCARGTRLRTLRNAFDIWGQGTLVTVSSASTKGKVAACKEKVAALKEKVAALKEKVAALKE chain 3: not shown | 2.6 nM | 2.2 nM | ~0.008 µg/mL | ~0.03 µg/mL | 2.6 nM | 0.8 nM | 1.9 nM | ~0.2 µg/mL | ~0.1 µg/mL
